Assay results reported in paper PMC12753827 (Nature Communications, 2025).

Molecular target: the molecule itself
Assay: SEC

B1: CeLGRwt (full-length C. elegans LGR) (receptor)
chain: QNALSLAQTKHSCMALKAEDGEGCTCKQTKRYGQPECCCMGLIVSQLPTNLTADVGYLYLHNTSISVITPNFFDKFPSIRELEIDNSAHLEHIDGSSLSVLSKLRKLSVVKCPNLREISGKLLVNNTRIQNVILKNNGLATMPSLRMTDAHHVLLDRIDLSGNKIKFISDSKVRNVKARTVVLSENKLIEISGYAFTESQFLKLKLNNNPDLRSLSVDAFKNMAGLQTLDLSHTSIDTLPINGLKKLKTLILNDVPTLKSLPSVLSFTDLETAHFTYPHHCCLFKYVDDVTMNDNGKYQRNAKEIHKRICDKREQQKVARRRKRETSGIDFLDMLLKEWTDNSTYTGPDDADDDELPPFVEIGAEPCQSIGEEVQKYYSNITCYPQPDALNPCENIVGYPFLRIAVWVVCLAAIVGNIIVWALLGIVYEKRMRMHYLYMINMSVADMVTGIYLAVLAIADAKMSDEYYRHAVWWQTGWGCRAAGFLAVFASELGIISMFLIAFEMSYNTRQSFRGRRLSPKVGVLLMIGGWLFAIIMAILPWFDVSSYSESSVCLPLRAATIFDKSYLIFGLSFNFLAFAAMALSYGFIVKMLKENETREEDRALITKMTVLVVTDLICWFPTLFFGFTATIGFPLLSLSSAKFVLVFFFPINAFANPFLYVFFTEVIQHRVRSKTLPVIRRITTGPLNAASSLSNFYHSQPPGAHRRSRDEPTSPSGMHLAVTQTTSLNSTPRGSDVSRASDGMLFDYDRRASASPRVSFDIPISPTTPRSDRKNRISLLKRIVSSIPEVSDLSEHSSESHHEHVPHPRRKLRSSLNRILALGRRQEGSADSGRGSIASSAGSRDQNERVSLTSNASSILSPLLSPTNSNILILPPEPSKNRRKSTPAIPLLVVSDCS
For B1, the “stoichiometry N” value was 2.
